Assay results: publication PMC3864901, “A Conserved Sequence Extending Motif III of the Motor Domain in the Snf2-Family DNA Translocase Rad54 Is Critical for ATPase Activity” (PLoS ONE, 2013)

B1: Rad54 (Saccharomyces cerevisiae S288C) (protein)
chain: MARRRLPDRPPNGIGAGERPRLVPRPINVQDSVNRLTKPFRVPYKNTHIPPAAGRIATGSDNIVGGRSLRKRSATVCYSGLDINADEAEYNSQDISFSQLTKRRKDALSAQRLAKDPTRLSHIQYTLRRSFTVPIKGYVQRHSLPLTLGMKKKITPEPRPLHDPTDEFAIVLYDPSVDGEMIVHDTSMDNKEEESKKMIKSTQEKDNINKEKNSQEERPTQRIGRHPALMTNGVRNKPLRELLGDSENSAENKKKFASVPVVIDPKLAKILRPHQVEGVRFLYRCVTGLVMKDYLEAEAFNTSSEDPLKSDEKALTESQKTEQNNRGAYGCIMADEMGLGKTLQCIALMWTLLRQGPQGKRLIDKCIIVCPSSLVNNWANELIKWLGPNTLTPLAVDGKKSSMGGGNTTVSQAIHAWAQAQGRNIVKPVLIISYETLRRNVDQLKNCNVGLMLADEGHRLKNGDSLTFTALDSISCPRRVILSGTPIQNDLSEYFALLSFSNPGLLGSRAEFRKNFENPILRGRDADATDKEITKGEAQLQKLSTIVSKFIIRRTNDILAKYLPCKYEHVIFVNLKPLQNELYNKLIKSREVKKVVKGVGGSQPLRAIGILKKLCNHPNLLNFEDEFDDEDDLELPDDYNMPGSKARDVQTKYSAKFSILERFLHKIKTESDDKIVLISNYTQTLDLIEKMCRYKHYSAVRLDGTMSINKRQKLVDRFNDPEGQEFIFLLSSKAGGCGINLIGANRLILMDPDWNPAADQQALARVWRDGQKKDCFIYRFISTGTIEEKIFQRQSMKMSLSSCVVDAKEDVERLFSSDNLRQLFQKNENTICETHETYHCKRCNAQGKQLKRAPAMLYGDATTWNHLNHDALEKTNDHLLKNEHHYNDISFAFQYISH
notes: wild-type yeast Rad54, overexpressed in S. cerevisiae and purified as in earlier work

Tests used:
[1] = tested on: Rad54 (Saccharomyces cerevisiae); assay: EMSA (glutaraldehyde-fixed, agarose); conditions: 13 mM Mg acetate, 25 mM TEA-Ac pH 7.5, 13 mM Mg acetate, 1.8 mM DTT, 100 ug/ml BSA, 11.25% glycerol, 113 mM NaCl, 30 uM bp pUC19, 30 C 15 min, then 0.25% glutaraldehyde 15 min …
[2] = substrate: Nc1ncnc2c1ncn2[C@@H]1O[C@H](COP(=O)(O)OP(=O)(O)OP(=O)(O)O)[C@@H](O)[C@H]1O; assay: NADH-coupled ATPase assay, Michaelis-Menten fit; type: biochemical, Saccharomyces cerevisiae; conditions: 1.5 uM pUC19 dsDNA, 2.5 mM free Mg(OAc)2, 25 mM HEPES pH 7.5, 30 C, 5 nM Rad54
Description: NADH-coupled ATPase assay, Michaelis-Menten fit on Rad54 | Michaelis-Menten parameters of Rad54 and Rad54-2A as determined from the ATP titrations in B

Row | Molecule | binding (bp per Rad54 monomer (all DNA bound)) ([1]; 5 mM ATP + regeneration system) | binding (bp per Rad54 monomer (all DNA bound)) ([1]; no nucleotide) | Km [2] | kcat [2]
1 | pUC19 supercoiled dsDNA | 36 | 36 | – | –
2 | B1 | – | – | 170 ± 40 µM | 1,219 ± 45 min-1
